Laboratory results taken from publication PMC9482650, “Quantitative fragmentomics allow affinity mapping of interactomes” (Nature Communications, 2022).

T1: LRRC7, Q96NW7
T1 sequence (Q96NW7 1440-1537, limits assumed, looked up): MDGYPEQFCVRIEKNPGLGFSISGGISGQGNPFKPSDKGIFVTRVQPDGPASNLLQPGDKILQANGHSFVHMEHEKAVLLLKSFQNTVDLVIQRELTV

T2: MPP6, Q9NZW5
T2 sequence (Q9NZW5 125-219, limits assumed, looked up): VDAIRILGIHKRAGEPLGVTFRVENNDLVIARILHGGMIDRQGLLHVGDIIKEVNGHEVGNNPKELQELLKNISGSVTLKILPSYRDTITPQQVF

T3: NHERF3_1, Q5T2W1
T3 sequence (Q5T2W1 4-100, limits assumed, looked up): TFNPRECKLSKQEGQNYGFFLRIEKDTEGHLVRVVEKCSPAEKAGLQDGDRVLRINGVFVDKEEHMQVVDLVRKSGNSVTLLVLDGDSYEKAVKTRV

T4: NHERF3_3, Q5T2W1
T4 sequence (Q5T2W1 238-333, limits assumed, looked up): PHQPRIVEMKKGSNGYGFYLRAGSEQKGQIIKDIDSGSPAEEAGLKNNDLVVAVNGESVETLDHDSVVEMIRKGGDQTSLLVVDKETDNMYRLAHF

T5: PARD3B_1, Q8TEW8
T5 sequence (Q8TEW8 196-299, limits assumed, looked up): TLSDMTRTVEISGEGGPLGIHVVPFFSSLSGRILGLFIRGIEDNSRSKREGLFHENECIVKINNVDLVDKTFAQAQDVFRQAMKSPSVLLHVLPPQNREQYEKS

T6: SNTG1, Q9NSN8
T6 sequence (Q9NSN8 52-150, limits assumed, looked up): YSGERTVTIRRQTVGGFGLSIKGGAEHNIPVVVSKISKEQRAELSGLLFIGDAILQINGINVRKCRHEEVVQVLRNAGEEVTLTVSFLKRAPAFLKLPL

T7: SNTG2, Q9NY99
T7 sequence (Q9NY99 68-166, limits assumed, looked up): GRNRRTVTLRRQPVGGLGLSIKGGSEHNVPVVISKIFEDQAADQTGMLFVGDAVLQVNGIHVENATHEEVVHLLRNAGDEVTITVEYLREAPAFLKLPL

T8: TIAM2, Q8IVF5
T8 sequence (Q8IVF5 885-986, limits assumed, looked up): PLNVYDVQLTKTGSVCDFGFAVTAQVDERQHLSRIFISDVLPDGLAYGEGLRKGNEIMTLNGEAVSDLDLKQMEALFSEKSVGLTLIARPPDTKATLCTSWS

B1: ADAM22, Q9P0K1 (peptide)
chain: QSARLWETSI

biological target: ARHGEF12, Q9NZN5-2; experiment: holdup assay; design: key: below the threshold = too weak to quantify, mostly under pKd 3.1 to 4; conditions: plain residues with an end cap or a label only (N-terminal biotin on a linker: ado-ado)
Sequence (Q9NZN5 other isoform, or with tags, fused parts or gaps): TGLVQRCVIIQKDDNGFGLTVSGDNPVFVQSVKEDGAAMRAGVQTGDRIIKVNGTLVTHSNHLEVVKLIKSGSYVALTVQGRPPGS

Row | pKd | Binder
1 | 4.73 | B1

biological target: DLG1_2, Q12959; experiment: holdup assay; design: key: below the threshold = too weak to quantify, mostly under pKd 3.1 to 4; conditions: plain residues with an end cap or a label only (N-terminal biotin on a linker: ado-ado)
Sequence (Q12959 314-412): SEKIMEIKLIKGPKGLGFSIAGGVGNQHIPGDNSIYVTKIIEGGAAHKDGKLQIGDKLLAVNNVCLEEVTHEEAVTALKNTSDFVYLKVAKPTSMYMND

Row | pKd | Binder
2 | 4.47 | B1

biological target: DLG1_3, Q12959; experiment: holdup assay; design: key: below the threshold = too weak to quantify, mostly under pKd 3.1 to 4; conditions: plain residues with an end cap or a label only (N-terminal biotin on a linker: ado-ado)
Sequence (Q12959 457-571): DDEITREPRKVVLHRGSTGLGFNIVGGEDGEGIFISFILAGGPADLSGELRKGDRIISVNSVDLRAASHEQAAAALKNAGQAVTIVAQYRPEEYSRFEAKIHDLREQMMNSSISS

Row | pKd | Binder
3 | 4.66 | B1

biological target: DLG4_2, P78352; experiment: holdup assay; design: key: below the threshold = too weak to quantify, mostly under pKd 3.1 to 4; conditions: plain residues with an end cap or a label only (N-terminal biotin on a linker: ado-ado)
Sequence (P78352 155-259): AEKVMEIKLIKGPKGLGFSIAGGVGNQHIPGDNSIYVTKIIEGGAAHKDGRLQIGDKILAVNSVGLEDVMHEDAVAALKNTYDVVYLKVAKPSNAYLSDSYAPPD

Row | pKd | Binder
4 | 4.18 | B1

biological target: DLG4_3, P78352; experiment: holdup assay; design: key: below the threshold = too weak to quantify, mostly under pKd 3.1 to 4; conditions: plain residues with an end cap or a label only (N-terminal biotin on a linker: ado-ado)
Sequence (P78352 306-403): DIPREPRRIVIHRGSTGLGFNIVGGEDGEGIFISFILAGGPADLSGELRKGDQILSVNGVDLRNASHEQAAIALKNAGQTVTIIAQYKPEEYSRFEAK

Row | pKd | Binder
5 | 4.23 | B1

biological target: GRASP, Q7Z6J2; experiment: holdup assay; design: key: below the threshold = too weak to quantify, mostly under pKd 3.1 to 4; conditions: plain residues with an end cap or a label only (N-terminal biotin on a linker: ado-ado)
Sequence (Q7Z6J2 96-193): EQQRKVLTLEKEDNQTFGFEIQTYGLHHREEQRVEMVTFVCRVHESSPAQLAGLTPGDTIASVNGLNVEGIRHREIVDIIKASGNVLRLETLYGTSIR

Row | pKd | Binder
6 | 4.17 | B1

biological target: GRIP2_6, Q9C0E4; experiment: holdup assay; design: key: below the threshold = too weak to quantify, mostly under pKd 3.1 to 4; conditions: plain residues with an end cap or a label only (N-terminal biotin on a linker: ado-ado)
Sequence (Q9C0E4 648-740): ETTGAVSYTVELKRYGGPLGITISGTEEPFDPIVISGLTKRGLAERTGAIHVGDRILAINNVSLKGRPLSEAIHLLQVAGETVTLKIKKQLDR

Row | pKd | Binder
7 | 3.84 | B1

biological target: IL16_1, Q14005; experiment: holdup assay; design: key: below the threshold = too weak to quantify, mostly under pKd 3.1 to 4; conditions: plain residues with an end cap or a label only (N-terminal biotin on a linker: ado-ado)
Sequence (Q14005 210-306): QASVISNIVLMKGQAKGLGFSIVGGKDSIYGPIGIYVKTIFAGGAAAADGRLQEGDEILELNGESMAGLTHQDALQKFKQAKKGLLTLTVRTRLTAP

Row | pKd | Binder
8 | 3.68 | B1

biological target: IL16_4, Q14005; experiment: holdup assay; design: key: below the threshold = too weak to quantify, mostly under pKd 3.1 to 4; conditions: plain residues with an end cap or a label only (N-terminal biotin on a linker: ado-ado)
Sequence (Q14005 1229-1329): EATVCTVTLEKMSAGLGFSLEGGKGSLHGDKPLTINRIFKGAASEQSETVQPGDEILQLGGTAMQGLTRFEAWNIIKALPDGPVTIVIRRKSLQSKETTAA

Row | pKd | Binder
9 | 3.47 | B1

biological target: Inadl_1, Q8NI35; experiment: holdup assay; design: key: below the threshold = too weak to quantify, mostly under pKd 3.1 to 4; conditions: plain residues with an end cap or a label only (N-terminal biotin on a linker: ado-ado)
Sequence (Q8NI35 113-229): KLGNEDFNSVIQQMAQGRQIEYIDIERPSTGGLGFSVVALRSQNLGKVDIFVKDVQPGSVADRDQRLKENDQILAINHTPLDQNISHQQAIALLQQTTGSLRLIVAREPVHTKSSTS

Row | pKd | Binder
10 | 3.84 | B1

biological target: Inadl_3, Q8NI35; experiment: holdup assay; design: key: below the threshold = too weak to quantify, mostly under pKd 3.1 to 4; conditions: plain residues with an end cap or a label only (N-terminal biotin on a linker: ado-ado)
Sequence (Q8NI35 359-469): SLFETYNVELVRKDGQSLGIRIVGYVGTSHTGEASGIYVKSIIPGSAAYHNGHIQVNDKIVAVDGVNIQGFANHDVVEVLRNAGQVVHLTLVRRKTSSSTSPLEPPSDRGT

Row | pKd | Binder
11 | 4.92 | B1

biological target: LAP2, Q96RT1; experiment: holdup assay; design: key: below the threshold = too weak to quantify, mostly under pKd 3.1 to 4; conditions: plain residues with an end cap or a label only (N-terminal biotin on a linker: ado-ado)
Sequence (Q96RT1 other isoform, or with tags, fused parts or gaps): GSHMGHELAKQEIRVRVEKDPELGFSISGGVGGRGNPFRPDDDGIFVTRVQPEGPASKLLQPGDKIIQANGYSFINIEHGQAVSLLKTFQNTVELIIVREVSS

Row | pKd | Binder
12 | 3.96 | B1

biological target: LDB3, O75112; experiment: holdup assay; design: key: below the threshold = too weak to quantify, mostly under pKd 3.1 to 4; conditions: plain residues with an end cap or a label only (N-terminal biotin on a linker: ado-ado)
Sequence (O75112 1-94): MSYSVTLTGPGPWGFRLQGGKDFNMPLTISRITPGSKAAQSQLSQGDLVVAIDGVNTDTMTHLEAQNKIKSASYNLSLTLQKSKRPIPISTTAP

Row | pKd | Binder
13 | below the threshold | B1

biological target: LIMK2, P53671; experiment: holdup assay; design: key: below the threshold = too weak to quantify, mostly under pKd 3.1 to 4; conditions: plain residues with an end cap or a label only (N-terminal biotin on a linker: ado-ado)
Sequence (P53671 143-248): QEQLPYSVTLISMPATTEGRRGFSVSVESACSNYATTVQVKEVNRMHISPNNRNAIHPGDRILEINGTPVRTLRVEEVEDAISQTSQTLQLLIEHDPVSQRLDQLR

Row | pKd | Binder
14 | below the threshold | B1

biological target: T1, LRRC7, Q96NW7; experiment: holdup assay; design: key: below the threshold = too weak to quantify, mostly under pKd 3.1 to 4; conditions: plain residues with an end cap or a label only (N-terminal biotin on a linker: ado-ado)

Row | pKd | Binder
15 | below the threshold | B1

biological target: MAST2, Q6P0Q8; experiment: holdup assay; design: key: below the threshold = too weak to quantify, mostly under pKd 3.1 to 4; conditions: plain residues with an end cap or a label only (N-terminal biotin on a linker: ado-ado)
Sequence (Q6P0Q8 1099-1202): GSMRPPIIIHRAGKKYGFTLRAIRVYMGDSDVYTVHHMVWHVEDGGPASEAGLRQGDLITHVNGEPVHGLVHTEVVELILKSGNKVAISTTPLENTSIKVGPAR

Row | pKd | Binder
16 | 5.62 | B1

biological target: T2, MPP6, Q9NZW5; experiment: holdup assay; design: key: below the threshold = too weak to quantify, mostly under pKd 3.1 to 4; conditions: plain residues with an end cap or a label only (N-terminal biotin on a linker: ado-ado)

Row | pKd | Binder
17 | below the threshold | B1

biological target: T3, NHERF3_1, Q5T2W1; experiment: holdup assay; design: key: below the threshold = too weak to quantify, mostly under pKd 3.1 to 4; conditions: plain residues with an end cap or a label only (N-terminal biotin on a linker: ado-ado)

Row | pKd | Binder
18 | 4.88 | B1

biological target: T4, NHERF3_3, Q5T2W1; experiment: holdup assay; design: key: below the threshold = too weak to quantify, mostly under pKd 3.1 to 4; conditions: plain residues with an end cap or a label only (N-terminal biotin on a linker: ado-ado)

Row | pKd | Binder
19 | below the threshold | B1

biological target: NHERF4_4, Q86UT5; experiment: holdup assay; design: key: below the threshold = too weak to quantify, mostly under pKd 3.1 to 4; conditions: plain residues with an end cap or a label only (N-terminal biotin on a linker: ado-ado)
Sequence (Q86UT5 464-550): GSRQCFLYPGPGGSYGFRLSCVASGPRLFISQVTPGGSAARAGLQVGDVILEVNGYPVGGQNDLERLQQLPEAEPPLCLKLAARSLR

Row | pKd | Binder
20 | 3.91 | B1

biological target: T5, PARD3B_1, Q8TEW8; experiment: holdup assay; design: key: below the threshold = too weak to quantify, mostly under pKd 3.1 to 4; conditions: plain residues with an end cap or a label only (N-terminal biotin on a linker: ado-ado)

Row | pKd | Binder
21 | 3.78 | B1

biological target: PARD3_3, Q8TEW0; experiment: holdup assay; design: key: below the threshold = too weak to quantify, mostly under pKd 3.1 to 4; conditions: plain residues with an end cap or a label only (N-terminal biotin on a linker: ado-ado)
Sequence (Q8TEW0 582-685): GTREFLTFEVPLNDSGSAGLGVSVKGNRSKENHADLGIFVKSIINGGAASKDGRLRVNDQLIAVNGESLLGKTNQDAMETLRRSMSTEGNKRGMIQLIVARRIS

Row | pKd | Binder
22 | 3.74 | B1

biological target: PICK1, Q9NRD5; experiment: holdup assay; design: key: below the threshold = too weak to quantify, mostly under pKd 3.1 to 4; conditions: plain residues with an end cap or a label only (N-terminal biotin on a linker: ado-ado)
Sequence (Q9NRD5 17-115): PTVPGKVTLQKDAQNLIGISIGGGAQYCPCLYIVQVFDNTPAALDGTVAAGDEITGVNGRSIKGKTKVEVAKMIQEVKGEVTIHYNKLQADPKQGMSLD

Row | pKd | Binder
23 | 3.91 | B1

biological target: PTPN3, P26045; experiment: holdup assay; design: key: below the threshold = too weak to quantify, mostly under pKd 3.1 to 4; conditions: plain residues with an end cap or a label only (N-terminal biotin on a linker: ado-ado)
Sequence (P26045 505-587): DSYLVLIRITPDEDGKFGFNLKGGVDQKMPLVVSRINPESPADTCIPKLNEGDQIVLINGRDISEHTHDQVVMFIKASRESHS

Row | pKd | Binder
24 | 4.83 | B1

biological target: SCRIB_1, Q14160; experiment: holdup assay; design: key: below the threshold = too weak to quantify, mostly under pKd 3.1 to 4; conditions: plain residues with an end cap or a label only (N-terminal biotin on a linker: ado-ado)
Sequence (Q14160 718-814): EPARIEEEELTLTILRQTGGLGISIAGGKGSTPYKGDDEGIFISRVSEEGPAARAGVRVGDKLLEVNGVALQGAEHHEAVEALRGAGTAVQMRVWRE

Row | pKd | Binder
25 | 5.23 | B1

biological target: SCRIB_3, Q14160; experiment: holdup assay; design: key: below the threshold = too weak to quantify, mostly under pKd 3.1 to 4; conditions: plain residues with an end cap or a label only (N-terminal biotin on a linker: ado-ado)
Sequence (Q14160 999-1103): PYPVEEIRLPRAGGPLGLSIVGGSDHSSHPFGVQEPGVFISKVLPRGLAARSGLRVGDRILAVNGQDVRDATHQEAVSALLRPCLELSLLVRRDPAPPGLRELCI

Row | pKd | Binder
26 | 5.32 | B1

biological target: T6, SNTG1, Q9NSN8; experiment: holdup assay; design: key: below the threshold = too weak to quantify, mostly under pKd 3.1 to 4; conditions: plain residues with an end cap or a label only (N-terminal biotin on a linker: ado-ado)

Row | pKd | Binder
27 | 4.82 | B1

biological target: T7, SNTG2, Q9NY99; experiment: holdup assay; design: key: below the threshold = too weak to quantify, mostly under pKd 3.1 to 4; conditions: plain residues with an end cap or a label only (N-terminal biotin on a linker: ado-ado)

Row | pKd | Binder
28 | 4.86 | B1

biological target: T8, TIAM2, Q8IVF5; experiment: holdup assay; design: key: below the threshold = too weak to quantify, mostly under pKd 3.1 to 4; conditions: plain residues with an end cap or a label only (N-terminal biotin on a linker: ado-ado)

Row | pKd | Binder
29 | 3.97 | B1

biological target: TJP1_3, Q07157; experiment: holdup assay; design: key: below the threshold = too weak to quantify, mostly under pKd 3.1 to 4; conditions: plain residues with an end cap or a label only (N-terminal biotin on a linker: ado-ado)
Sequence (Q07157 416-512): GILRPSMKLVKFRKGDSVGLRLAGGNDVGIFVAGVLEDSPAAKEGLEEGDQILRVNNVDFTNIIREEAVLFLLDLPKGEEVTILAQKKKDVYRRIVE

Row | pKd | Binder
30 | below the threshold | B1
